# Reference: the domain aggregation screens of Martell et al. (2025)
# Assay: soluble fraction after stress (log2 fold change); higher = more stays soluble; pooled small domains, quantitative proteomics
# Conditions: stress: pH 4
# In short: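 Aggregation propensity is read out as the fold change in how much of each domain remains soluble after acid stress. The custom small-domain libraries were pooled, held at pH 4 and analysed with high-throughput quantitative proteomics. On the log2 scale used, higher values mean more of the domain stayed soluble.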
row,Sequence,soluble fraction (log2)
1,HMVKIIHYEVYANRGDGWKLVDQFSADQRQEAVNLAKEIETEDQVAVKIIREIFDVQDNTYQESVEYIG,-0.804
2,HMTPDGNATVWSANGYGVRLRTGPGKGYAIIGVYSVGTTVKVLERGPAGGWDHIQVGSRVGYMMNEFLHYY,0.422
3,HMRLTTTPKTARGLTTMNRIIRAAEVEFGRKGYHYTGITDIAQRAKVASGTIYLYFTDKYSLYVHLLT,0.17
4,HMVTFDEISQSLVRDVAARRSLSVQTLHAMVDRYNAGSSINAVANQYGIDRLKLREILIELGVHVAT,-0.44
5,HMDRVDGWLHDGKLYLRVVDYKTGKKSFDLAELRYGLGLQMLLYLFTLKEEGQMLFGGHEIVPAGVL,-0.282
6,HMTITPEVIVNHFKNLDLFFTKNGNYYEFKKKGTENILFKYGIYKQKPNIFVKIQRYPISSLSDLERIPI,-0.159
7,HMDTDVFLMDLRGESRDYAEEVLINNNLEVKVIILPFSKRHYPGKVVEMRPSPFTKVKKGRIITLSVAGN,-1.11
8,HMVAGHLQEKKGYFYMVLTYRDHEGKRKSKWLPTGLTIKGNKKRAQDLLQDARKNFVPDIPT,≥ 0.43
9,HMTFPIDINRADTEQLTALPGIGEVLAKRIIAYREENGSFLSTDELKNVEGIGEKRLEAIVDLITIG,-0.935
10,HMAQELPYEKVTMNGKMFYVYHVKAGEGLYLISRTFSVNADEILKFNPSIENGLKSGQVLYIPIK,-0.403
11,HMQLPDLDEIRQMRKRLDLSQRELAALAGVSQSLIAKIEKGSIDPSYDNVRKIFNAFENILKKRALE,-0.495
12,HMLPKNITNTIDHWIQKFPQGKQRSAIIAALHAVQHHNKGFLTNDLLNQVADYIDVPKMNVYEVATFYSM,0.22
13,HMDFKKKIIESWADIAETLRGLTVDSNISDWTTKQKNAYETLADKAELAGLSIADLNSILVELGYM,-0.378
14,HMDSTTHALALVRTLPRDQAEAVLLRVVADLDYADVAEIMGRSPGAVRVLVHRGLRRLEQELATRRT,-0.426
15,HMRHSLAAALTELRRLAALDLGDFFRFEYVSHTDSLGGKQQAYTEGIRVSFGVYLGVNKKDRLNVDPVV,-2.38
16,HMPMIQHFHRMISAALGISEKQIVQTLGLLNDGATIPFISRYRKEVTGGLDEVQIESIKTHYEKLNEIAK,-0.999
17,HMSAMSPTEVGERLRLAREAVRMTQKQAADAISVARTTLVAIEQGQRRVRIDELQQLAKTYGVSVNAILR,0.27
18,HMKHKGILTTWNDDRGFGFITPKEGKEPVFVHISAFARGQGRPVLNASLTYRLVRDDQQRPRAEAVRL,0.189
19,HMPKLVGEVMQTLDALRREKGLSLLLVEQNARAALGVVDRVYVLERGRVVFEGSAKEAMEDQDVMEFYLG,0.0193
20,HMYELREGDVVSVRILSQTGQNSYIASFAGGRFSVTSERAFAPGTVFSASVSLKDGTLVLSPL,0.0111
21,HMNDMPELLSIKEASQWATEYLNKNVTTSNIAYLIQYGRIRKIGNNGSTQVLKDDLVKYYKDQK,-0.0394
22,HMKKSRLHSVLEEIPGIGEKRRKILIKHFGTVEAIKKSSLEELARIKGMNRRAAQNVLEYLK,0.407
23,HMNNVDQLIEQYKTLPGGLLPLLHAIKHALGYIPESTVGSIAKGFNLSRAEVHGVISFYHDFNTQP,-0.365
24,HMTEAVYMPALQNKTLEEAQRIVEQYDLELEYTYEANAQVEEGRILSQTPQMGVLVERGEKVQAVVSLG,-0.43
25,HMNNILNYTIAELMEILKIDDLETENVINSSNNLINKSINENNFPLAEFYEDVKNNLIEFIETFDS,-1.08
26,HMETMSYAEFNAIRIGKAKLMLADPSLKIWEISEAVGYTDTAHFARTFKKLEGMSANEYRNSL,-0.713

row,Sequence,soluble fraction (log2)
1,HMSELIDSLTEAVRSAPDAVPLRLHLAELLLADGQRDRAFAQLGQVLAKDPQNARALEMLGVGS,-0.373
2,HMANSDEEVLNKISTKAPTFNELINKIKEFDDTKEINDIWLDVYRYYITDEEYKEIAKKVITGLTYTNQ,-0.544
3,HMIKRDLAFSEFIAEVKAGQVREVTIKGNSISGNLNDGREFNTYAPNDPNLVKTLTDQGVLIRAIPLE,0.227
4,HMTTQTTKYVNTTAGLNVRTGPSTSYAKIVTLSYGQSVNVLSTSNGWSKINYNGSTGYVSSQYLQSTKPS,0.0265
5,HMSQITEADYIPNTDKTWGELMEETGESLPNLVERYNNEMTKSNGKEQPQSIIQRIIEDYQMVS,-0.0864
6,HMVAPKDIVMPSFVGKKYTDVVNTPNSSYTFEFKKDEKNSSDYAVGFIMDQKPKAGETVKSNATVTLIVSK,0.0982
7,HMEMTDKEEELMRIFWNHGPMFVREIVELYPEPRPHFNTLSTFVRNLEQKGFVSHEAVGGSFRYYAV,-1.44
8,HMASENISYSQFINQVKNSMVESVSIEADGKTISGKYKSGSSFVTYGLNDPKLVDDLLSNNVEIL,0.0122
9,HMKTGNIVMVNLGWKGKYYSIKMFFPQVSKPSRKDVQDQIEKIYPGGKLYTFVVSNYEPGEPMLHA,-0.164
10,HMFNGDPTTRESILASARAEIDQYGIIGLRLSAVAEKAQVSVPLIYKYFEDRDGLLAVVLGDW,-1.36
11,HMNILNFSENIIKLRHKKGITQEELADFVGVTKASVSKWETKQSLPDIMLLPRLAAYFDVTVDELLGYEP,-0.115
12,HMHPTEKNLTSLLADGSFYMNQNKLETAYDTFTKTIELDPSWAEAWNKRATVLYLMGKYELSQADIDQV,-0.176
13,HMTYFDIAPELLTVYKEINDIPRDINQIVRKTGLSINEVSYKTMILQLEDKIVELPGQRFIRNS,-0.815
14,HMGTPLYLLLAAEVRDRIATEQLAPHTAVPSERELAELHGVSRMTARQALALLESEGLVYRNPPRGTFVAE,-0.922
15,HMARAVSPLEAIPGVGPRRRQQLLKQLGGMQEVARAGVEDLSRVPGISRALAQQIYDAFHGD,0.0348
16,HMSNIQLVENLYRLRKAHHYTQQEISDLLNISRQAYSNYETSKRTPDLDSLMRLADIYGVSLDQLVNHP,-0.347
17,HMPNDYRKKLEILAKEKGAEYLHTMLTEVDPKSALQIHTNNIKRTIRALEFYHQTGMKISEHNEAEREK,0.0478
18,HMNEIALETAIEDVESFIQMQNRNLAFSIDEDTDRAVVTVRDSDSGDVIRQIPSEEVLALAERIQDLQQD,-0.485
19,HMTDSISLTLNGDPRPFRAGATVADLVRDIGLDPAKVAVERNLEIVPRSTLENVHLADGDVLEIVHFV,-0.45
20,HMEETEVPPVTGYEQSKASEVLTGKGLIPDIITVADEETAAGYVIRTDPASGEKVPSGTTVKVYVSSGP,-0.0585
21,HMNRKLKAKATREKIYKSAEKLFSQNDYNKVSVDAIVEAAGVAKGSFYVHFASKDALIAMLINDH,-0.012
22,HMNNLLEDIKARLMAQAEAGGHIDTETELAEHFGVTRYRIRKELDLLSQMGLLRRQPKNGIEVLTV,0.22
23,HMDLTSDANLKEAKDQILNLLNDGKRHHVTEINKILLPPVQVQEALRFLIHEETVRVDASFLF,-0.083
24,HMGQVEVPDVVGMTQERAITTLTEAKLVAQIQLTPADVAKGLVAAQSPRAGLKIGEGSFVTIEVSTGPVI,0.229
25,HMKTTKLEELDMQKEFILKNGKYGFGVYIGGKYIGLTDIGTVNSFKDSLQLPVVSLSDIDFKTFAEKF,-1.34
26,HMSQLSQIVDAFGGLRPFARALNKPPSTVQYWIEKGGIPASVVSPIMKLSEEKGLGLSRDQVSAAVS,0.0542

row,Sequence,soluble fraction (log2)
1,HMGMAETTARILQLLGLLQSRRGWSGQELAERLGVTTRSVRRDVERLRELGYPVHASAGHGGGYQLGA,-0.106
2,HMYPMQNYSTIIGVIELRQQSVGYATTQKRYGIGSSTVTLIMKRFKELGLTLEELRAMPPKAVEVAFYPPE,0.246
3,HMNDQLIYSDFIRQVQDGQITEVTISGLNIAGTRSDGSVFNTLRPYIEDPKLIDDLLSHNVRIQGAE,-0.632
4,HMTDFESYTVRVTATNLNIRKGAGTNFHSAGYIKPGVYTIVEEADGKGATRWGKLKSGMGWISLDYAKK,0.428
5,HMEMDPKELGRQVLAKRKEKGWSQEQLGKMAEISRNYVSQIERGEADSISIKIINRLAIALGVSPSDLGE,0.21
6,HMKKASLSTVEKKLMKQNYSNDTMENRLARVESYMFGTVFSSDDTQTRIDRISSAYNAQKSS,-0.197
7,HMVDPAFLAWQQKPENTWFGTDRRKTALAIAIAEEIRNDPANSNLVGAAFYARVAEETEETLN,-1.23
8,HMNKIGTIVSINGPIVKTAGDVGFVMHEMVYVGKEKLVGEVIGLTTDFTIVEVYEETSGIKPGETIEGT,0.00293
9,HMNVGKYILTLAAKEGYSQSDVARRTGISRQMLSYIIAGERKLTLPQALKIESLLSLKTGTLILMQDED,0.219
10,HMLTDAAAVKRSVRNLVQYGFYEKPFHPEIGSGVRDLLFENMTPFVANNLSKQIEEIITNYEPRA,-0.126
11,HMLSLTSRQQEIFDLIKGHIKKTGMPPTRSEIALHFGFRSANSAEEHLRALARKGFIELIPGTSRGIKLIE,≥ 0.43
12,HMEIYEEDRTKVVNDLMDQILNRQITMDAAATKFINIRNSLGTTITKEDEQNLEMLRGLIFDKT,-1.17
13,HMSATPQRMTIIDALDSSGKNLSAYELLDLLNDKGQLFNISTIYRVLDFWIEMGIVHKINSSNTYL,0.132
14,HMDAAANTLRILKALSESPMSADRLAELLMEEGSGRNPRTIRRYIRALREAGFGVEHREGRYVL,-0.483
15,HMDSGINVWASAEGLTITADKDTTVYVYDIYGRTIHTSEVKAGTSDIAINTKGIVIVKANGYTKKII,-0.76
16,HMPTEAIVLQQIQIRQSPSGNSKSLQQILPGAKIKITSESSVKGWKQVSLDGGQKGWIPTAAIGL,0.302
17,HMNDVGKVLNQLGERDRMILLLTYWDELPLKEAARILEVSENNAKIILFRARSRFASLWSAGS,-0.794
18,HMIEFYTMQDMFYFKLTGDNTSRERREALGKILGIGYGNATQMVSRLNNYGISKEEFSKAIEEIEKQLEA,-1.36
19,HMAAEELTVDKILTAQSFGVTAEAILAKVNDPANTVATLTQADVDRLRAAGVPEGVVTALQARAPQ,-0.155
20,HMLLFSVADIVKRSKRILSFKTDAELAAYFGVSRSTLSNWIARNSIDFPLLLSKMKDVDYTWLILGKGTPG,-0.207
21,HMEELGKVRPELDGNEIAKVLGITPGPVLGRAYTYLLSVRLDEGPIGPDVARERLLAWWAEQPES,-2.01
22,HMIYQEGMQVKYQGKEYVISEIQDYKTYKTIKLDDNEGYLNGFITGSEILSFRNESELDLEI,-0.785
23,HMEIKDQADAYGKMEPASAAAILSEMTNDLTLVAKILDSMQTSKSALILQNMKPTTAAQVTTKMTAMK,-0.11
24,HMPLLSPRQLDVLSLAAGGLSDAQIAGRLVLSESTVRVHFHHIIEKLGVTDRAGAIAWYEQSRS,-0.378
